Columns and labels:
Assay in all cases: SEC area ratio of heteromultimer after coexpression of full-length heavy chain, light chain and Fc fragment in Expi293F
[1] = molecular target: T1, IgG1 Fc fragment with CH3 modification T366W/L368A/Y407V (SEQ ID NO: 65)
T1 chain: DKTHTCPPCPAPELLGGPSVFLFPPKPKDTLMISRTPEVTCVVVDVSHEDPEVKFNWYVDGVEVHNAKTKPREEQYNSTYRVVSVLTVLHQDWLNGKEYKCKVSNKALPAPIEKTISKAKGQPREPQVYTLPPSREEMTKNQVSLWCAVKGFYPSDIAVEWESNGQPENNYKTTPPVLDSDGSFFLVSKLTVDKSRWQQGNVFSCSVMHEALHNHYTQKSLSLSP

[2] = molecular target: T2, IgG1 Fc fragment with CH3 modification K392L/T394W/F405A/Y407V (SEQ ID NO: 70)
T2 chain: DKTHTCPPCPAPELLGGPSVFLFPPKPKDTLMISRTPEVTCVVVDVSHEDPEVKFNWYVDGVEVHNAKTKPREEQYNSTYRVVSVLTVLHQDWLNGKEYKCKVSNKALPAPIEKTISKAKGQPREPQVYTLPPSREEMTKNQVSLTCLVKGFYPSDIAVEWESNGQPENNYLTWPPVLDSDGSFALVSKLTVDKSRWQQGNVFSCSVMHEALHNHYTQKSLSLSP

[3] = molecular target: T3, IgG1 Fc fragment with CH3 modification K392D/D399K/K409D (SEQ ID NO: 72)
T3 chain: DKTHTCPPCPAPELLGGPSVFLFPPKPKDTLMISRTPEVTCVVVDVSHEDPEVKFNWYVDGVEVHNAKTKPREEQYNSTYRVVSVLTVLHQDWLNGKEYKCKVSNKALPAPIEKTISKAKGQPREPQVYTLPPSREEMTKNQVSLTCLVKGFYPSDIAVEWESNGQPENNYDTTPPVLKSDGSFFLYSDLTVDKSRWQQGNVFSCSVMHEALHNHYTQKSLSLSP

[4] = molecular target: IgG1 Fc fragment, WT (no CH3 modification), SEQ ID NO: 63 in Table 5
[5] = molecular target: T4, IgG1 Fc fragment with CH3 modification E356K/K392D/D399K/K439E (SEQ ID NO: 71)
T4 chain: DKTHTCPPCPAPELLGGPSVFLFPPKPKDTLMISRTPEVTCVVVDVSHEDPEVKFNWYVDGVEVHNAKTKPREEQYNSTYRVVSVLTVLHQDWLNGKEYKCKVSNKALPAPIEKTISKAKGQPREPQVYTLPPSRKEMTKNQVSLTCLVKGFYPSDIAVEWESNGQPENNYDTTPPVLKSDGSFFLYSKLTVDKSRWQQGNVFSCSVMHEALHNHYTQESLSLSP

[6] = molecular target: T5, IgG1 Fc fragment with CH3 modification Q347E/S354Y/T366Y/Y407T (SEQ ID NO: 69)
T5 chain: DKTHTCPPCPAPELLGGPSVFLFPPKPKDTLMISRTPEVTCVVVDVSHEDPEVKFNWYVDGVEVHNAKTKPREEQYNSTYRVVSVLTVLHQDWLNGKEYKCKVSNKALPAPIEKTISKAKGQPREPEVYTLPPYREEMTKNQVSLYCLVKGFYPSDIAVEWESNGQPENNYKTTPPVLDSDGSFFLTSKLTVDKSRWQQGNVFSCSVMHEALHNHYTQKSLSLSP

[7] = molecular target: T6, IgG1 Fc fragment with CH3 modification E345R/K360E/D399M/Y407A/K409V (SEQ ID NO: 76)
T6 chain: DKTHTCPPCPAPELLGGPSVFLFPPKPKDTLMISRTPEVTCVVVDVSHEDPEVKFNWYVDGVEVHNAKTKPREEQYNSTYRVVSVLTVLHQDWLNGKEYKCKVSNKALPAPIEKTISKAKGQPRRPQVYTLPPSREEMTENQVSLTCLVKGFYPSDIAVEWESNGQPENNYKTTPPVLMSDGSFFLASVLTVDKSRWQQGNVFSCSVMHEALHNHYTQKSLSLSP

[8] = molecular target: T7, IgG1 Fc fragment with CH3 modification T350V/L351Y/T366L/K392L/T394W/F405A/Y407V (SEQ ID NO: 77)
T7 chain: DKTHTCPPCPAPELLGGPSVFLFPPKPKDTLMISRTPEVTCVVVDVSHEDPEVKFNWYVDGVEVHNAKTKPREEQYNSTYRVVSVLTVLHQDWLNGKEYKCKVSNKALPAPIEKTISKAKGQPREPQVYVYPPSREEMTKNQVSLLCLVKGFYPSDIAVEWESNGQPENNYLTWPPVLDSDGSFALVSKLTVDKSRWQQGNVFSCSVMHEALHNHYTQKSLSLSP

[9] = molecular target: T8, IgG1 Fc fragment with CH3 modification E345R/Q347R/K360D/T366V/D399M/Y407A/K409V (SEQ ID NO: 74)
T8 chain: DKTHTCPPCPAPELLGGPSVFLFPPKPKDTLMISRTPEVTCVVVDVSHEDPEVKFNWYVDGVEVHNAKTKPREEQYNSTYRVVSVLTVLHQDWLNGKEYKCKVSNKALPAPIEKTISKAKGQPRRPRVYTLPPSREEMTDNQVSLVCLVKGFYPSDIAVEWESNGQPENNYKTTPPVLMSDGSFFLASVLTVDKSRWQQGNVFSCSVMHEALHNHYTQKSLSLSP

Measured: heterodimer formation ratio (%)

B1: full-length IgG heavy chain with CH3 modification Y349C/E357C/K392D/D399K (SEQ ID NO: 51), coexpressed with light chain SEQ ID NO: 61 (protein)
chain 1: QVQLQESGPGLVRPSQTLSLTCTVSGYSITSDHAWSWVRQPPGRGLEWIGYISYSGITTYNPSLKSRVTMLRDTSKNQFSLRLSSVTAADTAVYYCARSLARTTAMDYWGQGSLVTVSSASTKGPSVFPLAPSSKSTSGGTAALGCLVKDYFPEPVTVSWNSGALTSGVHTFPAVLQSSGLYSLSSVVTVPSSSLGTQTYICNVNHKPSNTKVDKRVEPKSCDKTHTCPPCPAPELLGGPSVFLFPPKPKDTLMISRTPEVTCVVVDVSHEDPEVKFNWYVDGVEVHNAKTKPREEQYNSTYRVVSVLTVLHQDWLNGKEYKCKVSNKALPAPIEKTISKAKGQPREPQVCTLPPSRECMTKNQVSLTCLVKGFYPSDIAVEWESNGQPENNYDTTPPVLKSDGSFFLYSKLTVDKSRWQQGNVFSCSVMHEALHNHYTQKSLSLSP
chain 2: not shown
2%: [9]
9%: [3]
0%: all other assays above

B2: full-length IgG heavy chain with CH3 modification E345R/K360E/D399M/Y407A/K409V (SEQ ID NO: 58), coexpressed with light chain SEQ ID NO: 61 (protein)
chain 1: QVQLQESGPGLVRPSQTLSLTCTVSGYSITSDHAWSWVRQPPGRGLEWIGYISYSGITTYNPSLKSRVTMLRDTSKNQFSLRLSSVTAADTAVYYCARSLARTTAMDYWGQGSLVTVSSASTKGPSVFPLAPSSKSTSGGTAALGCLVKDYFPEPVTVSWNSGALTSGVHTFPAVLQSSGLYSLSSVVTVPSSSLGTQTYICNVNHKPSNTKVDKRVEPKSCDKTHTCPPCPAPELLGGPSVFLFPPKPKDTLMISRTPEVTCVVVDVSHEDPEVKFNWYVDGVEVHNAKTKPREEQYNSTYRVVSVLTVLHQDWLNGKEYKCKVSNKALPAPIEKTISKAKGQPRRPQVYTLPPSREEMTENQVSLTCLVKGFYPSDIAVEWESNGQPENNYKTTPPVLMSDGSFFLASVLTVDKSRWQQGNVFSCSVMHEALHNHYTQKSLSLSP
chain 2: not shown
51%: [7] | [9]
3%: [3]
0%: all other assays above

B3: full-length IgG heavy chain with CH3 modification E345R/Q347R/K360D/T366V/D399M/Y407A/K409V (SEQ ID NO: 55), coexpressed with light chain SEQ ID NO: 61 (protein)
chain 1: QVQLQESGPGLVRPSQTLSLTCTVSGYSITSDHAWSWVRQPPGRGLEWIGYISYSGITTYNPSLKSRVTMLRDTSKNQFSLRLSSVTAADTAVYYCARSLARTTAMDYWGQGSLVTVSSASTKGPSVFPLAPSSKSTSGGTAALGCLVKDYFPEPVTVSWNSGALTSGVHTFPAVLQSSGLYSLSSVVTVPSSSLGTQTYICNVNHKPSNTKVDKRVEPKSCDKTHTCPPCPAPELLGGPSVFLFPPKPKDTLMISRTPEVTCVVVDVSHEDPEVKFNWYVDGVEVHNAKTKPREEQYNSTYRVVSVLTVLHQDWLNGKEYKCKVSNKALPAPIEKTISKAKGQPRRPRVYTLPPSREEMTDNQVSLVCLVKGFYPSDIAVEWESNGQPENNYKTTPPVLMSDGSFFLASVLTVDKSRWQQGNVFSCSVMHEALHNHYTQKSLSLSP
chain 2: not shown
49%: [7]
52%: [9]
0%: all other assays above

B4: full-length IgG heavy chain with CH3 modification T350V/L351Y/T366L/K392L/T394W/F405A/Y407V (SEQ ID NO: 60), coexpressed with light chain SEQ ID NO: 61 (protein)
chain 1: QVQLQESGPGLVRPSQTLSLTCTVSGYSITSDHAWSWVRQPPGRGLEWIGYISYSGITTYNPSLKSRVTMLRDTSKNQFSLRLSSVTAADTAVYYCARSLARTTAMDYWGQGSLVTVSSASTKGPSVFPLAPSSKSTSGGTAALGCLVKDYFPEPVTVSWNSGALTSGVHTFPAVLQSSGLYSLSSVVTVPSSSLGTQTYICNVNHKPSNTKVDKRVEPKSCDKTHTCPPCPAPELLGGPSVFLFPPKPKDTLMISRTPEVTCVVVDVSHEDPEVKFNWYVDGVEVHNAKTKPREEQYNSTYRVVSVLTVLHQDWLNGKEYKCKVSNKALPAPIEKTISKAKGQPREPQVYVYPPSREEMTKNQVSLLCLVKGFYPSDIAVEWESNGQPENNYLTWPPVLDSDGSFALVSKLTVDKSRWQQGNVFSCSVMHEALHNHYTQKSLSLSP
chain 2: not shown
51%: [8]
66%: [2]
0%: all other assays above

B5: full-length IgG heavy chain with CH3 modification E356K/K392D/D399K/K409D (SEQ ID NO: 56), coexpressed with light chain SEQ ID NO: 61 (protein)
chain 1: QVQLQESGPGLVRPSQTLSLTCTVSGYSITSDHAWSWVRQPPGRGLEWIGYISYSGITTYNPSLKSRVTMLRDTSKNQFSLRLSSVTAADTAVYYCARSLARTTAMDYWGQGSLVTVSSASTKGPSVFPLAPSSKSTSGGTAALGCLVKDYFPEPVTVSWNSGALTSGVHTFPAVLQSSGLYSLSSVVTVPSSSLGTQTYICNVNHKPSNTKVDKRVEPKSCDKTHTCPPCPAPELLGGPSVFLFPPKPKDTLMISRTPEVTCVVVDVSHEDPEVKFNWYVDGVEVHNAKTKPREEQYNSTYRVVSVLTVLHQDWLNGKEYKCKVSNKALPAPIEKTISKAKGQPREPQVYTLPPSRKEMTKNQVSLTCLVKGFYPSDIAVEWESNGQPENNYDTTPPVLKSDGSFFLYSDLTVDKSRWQQGNVFSCSVMHEALHNHYTQKSLSLSP
chain 2: not shown
51%: [3]
60%: [5]
0%: all other assays above

From US20260217835
